This data set concerns the target T1, sHdrR-trunc (Hyphomicrobium denitrificans XT) (UniProt D8JT17).
T1 sequence: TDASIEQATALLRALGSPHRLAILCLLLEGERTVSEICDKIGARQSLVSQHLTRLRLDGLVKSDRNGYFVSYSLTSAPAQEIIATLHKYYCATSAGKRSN
Description: EMSA. Particulars: 10 mM Tris-HCl, 50 mM KCl, 1 mM DTT, pH 8.0 (1x of 10x buffer), about 7% glycerol; 20 min RT then 30 min at 30 C with 17 nM DNA; 6% native PAGE, 0.25x TBE, 4 C.

Results on four sequences are retold here after paper PMC12423496.

With “TGCCACCTCCCCGATATGCGTGGCTTTTGTTGTTTTGCCACTTCAGTTCTTGTGTAACTTCCTCTTTAGAACCAGTCAATATTACATTCGCATGTTTGAATATTCCATTTTTCTATATGTTCATCGAATTGGAAAAGTTATTCAAATATATCGCGATCGATTGATCGGCGAAGTC (double strand) [upstream of dsrE3C]”, the binding result was “binds”.

As for “TCGACAGCTTGCGGAAATCCGCAATCGAGATCGAAGCCATCGATCGTATTCGAATAGCACGTTCAGCTTCTGCGGAAGCGAACAACGCAACCGGCGCCAAGAGATAAATCTACATCGATCGTCGCGCCGGATGCGTTCACGTTGCCAAGGAATTCCTCACCGGCGGAGCCGTGGAATT (double strand)”, the binding result is “no binding”.

For “CGGCCCTCTGAGAAAAGACGCACACGTCGCGCCAAAAACATATGAACATTCGCATGATGGAATATAACAGCCCTGCCGATCGCACAAGGCTCGCTTTAAACGCGGACGCGTCTTCGCAGCGCACACGCATGCGCTGGACGTCCGATCATGTGAAAATTGGGCTGAAGACTCGCTCTA (double strand) [upstream of lipS1]”, the binding result was “binds”.

Consider “GGGTCACCAAATTCTGCAGGTCTCAATGCGAATGCGAGGCTGCTCCAGCTAGACGAAAAACAAGGAACGTTGCAATAGATAATTCACATATGATAATTTTCATATGTGTTATAGGATGAACGTTATCGCAGCTTCCGGGAGAGATGGCGTGAT (double strand) [soxA-soxY intergenic region]”, for which the binding entry is reported as “binds”.
